One molecule from patent US20220213227A1 (published 2022) can be followed below.

For the assay, the target named is T1, soluble extracellular region of cynomolgus monkey CD38 antigen fused to a 6-His-tag (UniProt Q5VAN0 45-301).
T1 chain: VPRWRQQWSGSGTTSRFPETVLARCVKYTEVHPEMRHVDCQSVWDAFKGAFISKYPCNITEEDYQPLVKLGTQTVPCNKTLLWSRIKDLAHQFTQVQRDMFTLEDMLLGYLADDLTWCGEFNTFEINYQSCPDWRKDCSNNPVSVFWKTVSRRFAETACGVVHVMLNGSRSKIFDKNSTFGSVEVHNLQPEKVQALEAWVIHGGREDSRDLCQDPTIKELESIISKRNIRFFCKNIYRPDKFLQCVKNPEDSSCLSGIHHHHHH
In words: SPR. On the technique in general: In SPR one partner is held on a chip, and binding of the other changes the refractive index at the surface.

B1: chimeric 9G7 antibody (antibody, V domains shown)
VH: QVTLKESGPGILQPSQTLSLTCSFSGLSLSTSGKGVGWIRQPSGKGLEWLAHIWWDDDKRYNPALKSRLTISKDTSSNQVFLKIASVDTADTATYYCARIELGRSYVMDYWGQGTTVTVSS
VL: DIVMTQSHKFMSTSVGDRVSISCKASQDVITSVAWFQQKPGQSPKLLIYSASYRYTGVPDRFTGSGSGTDFTFTISSVQAEDLAVYYCQQHYTIPLTFGAGTKLELKR
For the molecule B1, binding was put at a Kd of 1 nM.
